Laboratory results as given in US20220340642A1 (Kyowa Kirin, published 2022).
Changes are numbered by the printed parent chain. In names and notes the source's numbering stands.

B1: chimera A-Fc (Eg1S YTE) (Fc fusion)
chain: ETFPPKYLHYDEETSHQLLCDKCPPGTYLKQHCTAKWKTVCAPCPPRHYTQFWNYLERCRYCNVLCGEREEEARACHATHNRACRCRTGFFAHAGFCLEHASCPPGAGVIAPGTPSQNTQCQPCPDGFFSNETSSKAPCRKHTNCSVFGLLLTQKGNATHDNICSGNSESTQKEPKSSDKTHTCPPCPAPELLGGPSVFLFPPKPKDTLYITREPEVTCVVVDVSHEDPEVKFNWYVDGVEVHNAKTKPREEQYNSTYRVVSVLTVLHQDWLNGKEYKCKVSNKALPAPIEKTISKAKGQPREPQVYTLPPSRDELTKNQVSLTCLVKGFYPSDIAVEWESNGQPENNYKTTPPVLDSDGSFFLYSKLTVDKSRWQQGNVFSCSVMHEALHNHYTQKSLSLSPGK
B2: chimera A-E57K-Fc (Eg1S YTE) (Fc fusion)
chain: B1 chain with E57K
B3: chimera A-E57K-Fc (Eg1S LALAGANA) (Fc fusion)
chain: B1 chain with E57K, L192A, L193A, G195A, Y210M, T212S, E214T, N392A
B4: chimera A-Fc (Eg1S LALAGANA) (Fc fusion)
chain: B1 chain with L192A, L193A, G195A, Y210M, T212S, E214T, N392A
B5: chimera A-E57K_R58E-Fc (Eg1S LALAGANA) (Fc fusion)
chain: B1 chain with E57K, R58E, L192A, L193A, G195A, Y210M, T212S, E214T, N392A
B6: chimera A-E57K_R58E-Fc (Eg1S YTE) (Fc fusion)
chain: B1 chain with E57K, R58E
notes: also called 45-18-Fc (Eg1S YTE)

What follows are binders tested against T1, primary soluble TL1A produced from an activated human PBMC (human, UniProt O95150 72-251, limits assumed) (assay: sandwich ELISA, binder captured).
T1 sequence (looked up): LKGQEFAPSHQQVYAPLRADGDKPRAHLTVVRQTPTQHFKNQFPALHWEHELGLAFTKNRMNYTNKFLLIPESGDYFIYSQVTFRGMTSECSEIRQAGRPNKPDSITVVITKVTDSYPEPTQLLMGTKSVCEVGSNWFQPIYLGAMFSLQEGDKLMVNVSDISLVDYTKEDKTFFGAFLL
Method: (§1) Then, 10 μg/mL of anti-human IgG antibodies (American Qualex International, Inc.) were immobilized to a 96-well immunoplate (Thermo Scientific), and blocking was performed with 2% Block Ace (DS Pharma Biomedical Co., Ltd.), and then 2 μg/mL of chimera A-Fc, E57K-Fc and 45-18-Fc (in all of which Fc is Eg1S YTE or Eg1S […]) were captured. The culture supernatant of human T cells stimulated for LIGHT production was concentrated 6-fold using Amicon Ultra-15 having a molecular weight cutoff of 3 kDa (Merck Millipore) prerinsed with sterile water. After the plate was washed, the 6-fold concentrated culture supernatant was reacted. As a standard of LIGHT, the soluble recombinant FLAG-LIGHT trimer produced in Example 13 was used. After the plate was washed, a biotinylated anti-LIGHT antibody (R&D Systems, Inc.) was reacted. After the plate was washed, streptavidin-HRP (PIERCE) was reacted. After washing again, a TMB solution (Dako) was added to develop a color. Then, a 2 N sulfuric acid solution was used to stop the chromogenic reaction, and the absorbance at 450 nm (reference wavelength of 570 nm) was measured.
(§2) Sandwich ELISA was performed by the same method as in (1). On a 96-well immunoplate, chimera A-Fc, E57K-Fc and 45-18-Fc (in all of which Fc is Eg1S YTE or Eg1S […]) or the anti-human TL1A antibody produced in Example 16 was captured. Then, with the plate, a 4-fold concentrated culture supernatant of PBMCs stimulated for TL1A production or as a standard, the soluble recombinant His6-TL1A trimer produced in Example 13 was reacted, followed by detection with a biotinylated anti-TL1A antibody (R&D Systems, Inc.).
(§3) Sandwich ELISA was performed by the same method as in (1). On a 96-well immunoplate, chimera A-Fc, E57K-Fc and 45-18-Fc (each including Eg1S YTE or Eg1S […] as an Fc) or Fas-Fc (R&D Systems, Inc.) was captured, and then a 6-fold concentrated culture supernatant of human T cells stimulated for AICD or as a standard, Human His6 Fas Ligand/TNFSF6 (Cell Signaling Technology, Inc.) was reacted, followed by detection with a biotinylated anti-FasL antibody included with Human Fas Ligand ELISA Kit (Abcam plc).
B1: binds. B2: binds. B3: binds. B4: binds. B5: binds. B6: binds.

These binders were tested against primary soluble LIGHT produced from activated human T cells (human, UniProt O43557 83-240, limits assumed) (assay: sandwich ELISA, binder captured).
primary soluble LIGHT produced from activated human T cells, sequence (O43557 83-240 limits assumed): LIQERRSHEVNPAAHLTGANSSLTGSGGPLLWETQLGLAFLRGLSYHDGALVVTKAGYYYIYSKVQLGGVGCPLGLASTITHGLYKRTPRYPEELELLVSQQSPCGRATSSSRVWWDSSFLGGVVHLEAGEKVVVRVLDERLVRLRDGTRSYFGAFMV
Method: as §1, §2, §3
B1: binds. B2: binds. B3: binds. B4: binds. B5: binds. B6: binds.

The binders below were run against T2, primary soluble FasL produced from human T cells stimulated for AICD (human, UniProt P48023 130-281, limits assumed) (assay: sandwich ELISA, binder captured).
T2 construct: also called soluble FasL derived from human T cells
T2 sequence (looked up): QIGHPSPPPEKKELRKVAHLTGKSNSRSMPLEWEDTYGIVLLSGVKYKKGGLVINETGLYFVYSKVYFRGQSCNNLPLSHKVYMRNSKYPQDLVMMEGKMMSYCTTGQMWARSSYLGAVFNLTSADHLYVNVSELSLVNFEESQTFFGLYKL
Method: as §1, §2, §3
B1: binds. B2: binds. B3: binds. B4: binds. B5: binds. B6: binds.
